Experimental data as given in PMC8274477 (Frontiers in Cell and Developmental Biology, 2021).

B1: ANXA3 (natural protein, human, UniProt P12429 1-323, looked up)
chain: MASIWVGHRGTVRDYPDFSPSVDAEAIQKAIRGIGTDEKMLISILTERSNAQRQLIVKEYQAAYGKELKDDLKGDLSGHFEHLMVALVTPPAVFDAKQLKKSMKGAGTNEDALIEILTTRTSRQMKDISQAYYTVYKKSLGDDISSETSGDFRKALLTLADGRRDESLKVDEHLAKQDAQILYKAGENRWGTDEDKFTEILCLRSFPQLKLTFDEYRNISQKDIVDSIKGELSGHFEDLLLAIVNCVRNTPAFLAERLHRALKGIGTDEFTLNRIMVSRSEIDLLDIRTEFKKHYGYSLYSAIKSDTSGDYEITLLKICGGDD
notes: ANXA3; protein on the human proteome microarray; source: spotted on the HuProt human proteome microarray
B2: ALKBH3 (natural protein, human, UniProt Q96Q83 1-286, looked up)
chain: MEEKRRRARVQGAWAAPVKSQAIAQPATTAKSHLHQKPGQTWKNKEHHLSDREFVFKEPQQVVRRAPEPRVIDREGVYEISLSPTGVSRVCLYPGFVDVKEADWILEQLCQDVPWKQRTGIREDITYQQPRLTAWYGELPYTYSRITMEPNPHWHPVLRTLKNRIEENTGHTFNSLLCNLYRNEKDSVDWHSDDEPSLGRCPIIASLSFGATRTFEMRKKPPPEENGDYTYVERVKIPLDHGTLLIMEGATQADWQHRVPKEYHSREPRVNLTFRTVYPDPRGAPW
notes: ALKBH3; protein on the human proteome microarray; source: spotted on the HuProt human proteome microarray
B3: TTC9 (natural protein, human, UniProt Q92623 1-222, looked up)
chain: MERKGSAAGAKGNPSPPAAGEGQRPPPPLCVPGGGGGAPARGQVGAAAEPAELIRRAHEFKSQGAQCYKDKKFREAIGKYHRALLELKGLLPPPGERERDSRPASPAGALKPGRLSEEQSKTVEAIEIDCYNSLAACLLQAELVNYERVKEYCLKVLKKEGENFKALYRSGVAFYHLGDYDKALYYLKEARTQQPTDTNVIRYIQLTEMKLSRCSQREKEAM
notes: TTC9; protein on the human proteome microarray; source: spotted on the HuProt human proteome microarray
B4: TST (natural protein, human, UniProt Q16762 1-297, looked up)
chain: MVHQVLYRALVSTKWLAESIRTGKLGPGLRVLDASWYSPGTREARKEYLERHVPGASFFDIEECRDTASPYEMMLPSEAGFAEYVGRLGISNHTHVVVYDGEHLGSFYAPRVWWMFRVFGHRTVSVLNGGFRNWLKEGHPVTSEPSRPEPAVFKATLDRSLLKTYEQVLENLESKRFQLVDSRSQGRFLGTEPEPDAVGLDSGHIRGAVNMPFMDFLTEDGFEKGPEELRALFQTKKVDLSQPLIATCRKGVTACHVALAAYLCGKPDVAVYDGSWSEWFRRAPPESRVSQGKSEKA
notes: TST; protein on the human proteome microarray; source: spotted on the HuProt human proteome microarray
B5: TK1 (natural protein, human, UniProt P04183 1-234, looked up)
chain: MSCINLPTVLPGSPSKTRGQIQVILGPMFSGKSTELMRRVRRFQIAQYKCLVIKYAKDTRYSSSFCTHDRNTMEALPACLLRDVAQEALGVAVIGIDEGQFFPDIVEFCEAMANAGKTVIVAALDGTFQRKPFGAILNLVPLAESVVKLTAVCMECFREAAYTKRLGTEKEVEVIGGADKYHSVCRLCYFKKASGQPAGPDNKENCPVPGKPGEAVAARKLFAPQQILQCSPAN
notes: TK1; protein on the human proteome microarray; source: spotted on the HuProt human proteome microarray
B6: TMEM116 (natural protein, human, UniProt Q8NCL8 1-245, looked up)
chain: MKHTQSGQSTSPLVIDYTCRVCQMAFVFSSLIPLLLMTPVFCLGNTSECFQNFSQSHKCILMHSPPSAMAELPPSANTSVCSTLYFYGIAIFLGSFVLSLLTIMVLLIRAQTLYKKFVKSTGFLGSEQWAVIHIVDQRVRFYPVAFFCCWGPAVILMIIKLTKPQDTKLHMALYVLQALTATSQGLLNCGVYGWTQHKFHQLKQEARRDADTQTPLLCSQKRFYSRGLNSLESTLTFPASTSTIF
notes: TMEM116; protein on the human proteome microarray; source: spotted on the HuProt human proteome microarray
B7: C17orf82 (natural protein, human, UniProt Q86X59 1-251, looked up)
chain: MGRPLEGQPLRALDLYPEPAFLRSGKDPKSSPASSPSFAVLGPEVRSTGGQAGSRRRPSAPCSQDRAAAEGAPALLGGSPSSGSPGHPPGSAFGVEAGCRALNVSEHARGGFALGLPFGLSGGAYLFLLLDGAGDPKPTPEAPISSADGRAWFPSESSWQLPQLPAGSTSGSEPRARPGLGPRQLLTGPRDGAAGQGPGRGLTARLGREREIDCGPRQAGHGGTATDTGRAGSGARHRPPRDRGTPGLRTH
notes: C17orf82; protein on the human proteome microarray; source: spotted on the HuProt human proteome microarray
B8: ALKBH2 (natural protein, human, UniProt Q6NS38 1-261, looked up)
chain: MDRFLVKGAQGGLLRKQEEQEPTGEEPAVLGGDKESTRKRPRREAPGNGGHSAGPSWRHIRAEGLDCSYTVLFGKAEADEIFQELEKEVEYFTGALARVQVFGKWHSVPRKQATYGDAGLTYTFSGLTLSPKPWIPVLERIRDHVSGVTGQTFNFVLINRYKDGCDHIGEHRDDERELAPGSPIASVSFGACRDFVFRHKDSRGKSPSRRVAVVRLPLAHGSLLMMNHPTNTHWYHSLPVRKKVLAPRVNLTFRKILLTKK
notes: ALKBH2; protein on the human proteome microarray; source: spotted on the HuProt human proteome microarray
B9: WBP2NL (natural protein, human, UniProt Q6ICG8 1-309, looked up)
chain: MAVNQSHTENRRGALIPNGESLLKRSPNVELSFPQRSEGSNVFSGRKTGTLFLTSYRVIFITSCSISDPMLSFMMPFDLMTNLTVEQPVFAANFIKGTIQAAPYGGWEGQATFKLVFRNGDAIEFAQLMVKAASAAARGFPLRTLNDWFSSMGIYVITGEGNMCTPQMPCSVIVYGAPPAGYGAPPPGYGAPPAGYGAQPVGNEGPPVGYRASPVRYGAPPLGYGAPPAGYGAPPLGYGAPPLGYGTPPLGYGAPPLGYGAPPAGNEGPPAGYRASPAGSGARPQESTAAQAPENEASLPSASSSQVHS
notes: WBP2NL; protein on the human proteome microarray; source: spotted on the HuProt human proteome microarray
B10: C1orf74 (natural protein, human, UniProt Q96LT6 1-269, looked up)
chain: MLLLDLMSSPSPQLLVAAAQQTLGMGKRRSPPQAICLHLAGEVLAVARGLKPAVLYDCNCAGASELQSYLEELKGLGFLTFGLHILEIGENSLIVSPEHVCQHLEQVLLGTIAFVDVSSCQRHPSVCSLDQLQDLKALVAEIITHLQGLQRDLSLAVSYSRLHSSDWNLCTVFGILLGYPVPYTFHLNQGDDNCLALTPLRVFTARISWLLGQPPILLYSFSVPESLFPGLRDILNTWEKDLRTRFRTQNDFADLSISSEIVTLPAVAL
notes: C1orf74; protein on the human proteome microarray; source: spotted on the HuProt human proteome microarray
B11: C21orf59 (natural protein, human, UniProt P57076 1-290, looked up)
chain: MVLLHVKRGDESQFLLQAPGSTELEELTVQVARVYNGRLKVQRLCSEMEELAEHGIFLPPNMQGLTDDQIEELKLKDEWGEKCVPSGGAVFKKDDIGRRNGQAPNEKMKQVLKKTIEEAKAIISKKQVEAGVCVTMEMVKDALDQLRGAVMIVYPMGLPPYDPIRMEFENKEDLSGTQAGLNVIKEAEAQLWWAAKELRRTKKLSDYVGKNEKTKIIAKIQQRGQGAPAREPIISSEEQKQLMLYYHRRQEELKRLEENDDDAYLNSPWADNTALKRHFHGVKDIKWRPR
notes: C21orf59; protein on the human proteome microarray; source: spotted on the HuProt human proteome microarray
B12: XAGE3 (natural protein, human, UniProt Q8WTP9 1-111, looked up)
chain: MIWRGRSTYRPRPRRSVPPPELIGPMLEPGDEEPQQEEPPTESRDPAPGQEREEDQGAAETQVPDLEADLQELSQSKTGGECGNGPDDQGKILPKSEQFKMPEGGDRQPQV
notes: XAGE3; protein on the human proteome microarray; source: spotted on the HuProt human proteome microarray
B13: C11orf1 (natural protein, human, UniProt Q9H5F2 1-150, looked up)
chain: MAASQCLCCSKFLFQRQNLACFLTNPHCGSLVNADGHGEVWTDWNNMSKFFQYGWRCTTNENTYSNRTLMGNWNQERYDLRNIVQPKPLPSQFGHYFETTYDTSYNNKMPLSTHRFKREPHWFPGHQPELDPPRYKCTEKSTYMNSYSKP
notes: C11orf1; protein on the human proteome microarray; source: spotted on the HuProt human proteome microarray
B14: BLVRB (natural protein, human, UniProt P30043 1-206, looked up)
chain: MAVKKIAIFGATGQTGLTTLAQAVQAGYEVTVLVRDSSRLPSEGPRPAHVVVGDVLQAADVDKTVAGQDAVIVLLGTRNDLSPTTVMSEGARNIVAAMKAHGVDKVVACTSAFLLWDPTKVPPRLQAVTDDHIRMHKVLRESGLKYVAVMPPHIGDQPLTGAYTVTLDGRGPSRVISKHDLGHFMLRCLTTDEYDGHSTYPSHQYQ
notes: BLVRB; protein on the human proteome microarray; source: spotted on the HuProt human proteome microarray
B15: TTC9C (natural protein, human, UniProt Q8N5M4 1-171, looked up)
chain: MEKRLQEAQLYKEEGNQRYREGKYRDAVSRYHRALLQLRGLDPSLPSPLPNLGPQGPALTPEQENILHTTQTDCYNNLAACLLQMEPVNYERVREYSQKVLERQPDNAKALYRAGVAFFHLQDYDQARHYLLAAVNRQPKDANVRRYLQLTQSELSSYHRKEKQLYLGMFG
notes: TTC9C; protein on the human proteome microarray; source: spotted on the HuProt human proteome microarray
B16: BPHL (natural protein, human, UniProt Q86WA6 38-291, looked up)
chain: SVTSAKVAVNGVQLHYQQTGEGDHAVLLLPGMLGSGETDFGPQLKNLNKKLFTVVAWDPRGYGHSRPPDRDFPADFFERDAKDAVDLMKALKFKKVSLLGWSDGGITALIAAAKYPSYIHKMVIWGANAYVTDEDSMIYEGIRDVSKWSERTRKPLEALYGYDYFARTCEKWVDGIRQFKHLPDGNICRHLLPRVQCPALIVHGEKDPLVPRFHADFIHKHVKGSRLHLMPEGKHNLHLRFADEFNKLAEDFLQ
notes: BPHL; protein on the human proteome microarray; source: spotted on the HuProt human proteome microarray

target: T1, OTULIN (OTU deubiquitinase with linear linkage specificity, FAM105B), His-tagged, biotin-labelled (human, UniProt Q96BN8 1-352, biotin (label; sites not stated)); test: peptide or protein array; HuProt human proteome microarray; 5 ug/5 ml biotin-labelled LUBAC or OTULIN in solution, 1 h at room temperature; Cy5-streptavidin, scanned at 635 nm; BSA as negative control; hits: Z-score >= 3 and I_(Mean_Ratio) >= 1.4; settings: both partners purified
T1 construct: OTULIN (FAM105B), cDNA in pET28a; also called HIS-OTULIN; source: E. coli BL21 (DE3), purified (His-tag Purification Resin), labelled with biotin; not shown: His6, N-terminal, kept

Binding result, binds:
B1
B2
B3
B4
B5
B6
B7
B8
B9
B10
B11
B12
B13
B14
B15
B16
